Assay results reported in patent EP4640709A1 (CHIOME BIOSCIENCE INC., dated 2025).
Substitutions are numbered along the chain they refer to. Like-named read-outs stand apart in the source and are kept apart here.

B1: h1F8-2-1 (antibody, V domains shown)
VH: QVQLVQSGAEVKKPGSSVKVSCKASGFTFTNYWMQWIRQAPGQGLEWIGAIYPGSGESRYTRKFKGRATITADKSTSTAYMELSSLRSEDTAVYYCARWAGYSRNAAYWGQGTLVTVSS
VL: DIVMTQTPLSLPVTPGEPASISCRSRQSIVHSSGNTYLEWYLQKPGQSPQLLIYKVSNRFSGVPDRFSGSGSGTDFTLKISRVEAEDVGVYYCFQGSHIPPTFGGGTKVEIK
notes: Humanized antibody; also called humanized 1F8 antibody h1F8-2-1
B2: m1F8-1 antibody (antibody, V domains shown)
VH: QVQLQQSGAELARPGASVKLSCKASGFTFTNYWMQWIKQRPGQGLEWIGAIYPGSGESRYTRKFKGKATLTADKSSSTAYMQLNSLASEDSAVYYCARWAGYSRNAAYWGQGTLVTVSA
VL: B1 VL with I2V, V3L, T14S, P15L, E17D, P18Q, R26S, Q50K, V88L, V109L
notes: also called activity-enhanced m1F8 antibody
B3: h1F8-2-3 (antibody, V domains shown)
VH: B1 VH with I70L
VL: B1 VL
notes: Humanized antibody; also called humanized 1F8 antibody h1F8-2-3
B4: h1F8-2-2 antibody (antibody, IgG1, V domains shown)
VH: B1 VH with R67K
VL: B1 VL
notes: Humanized antibody; also called humanized 1F8 antibody (h1F8-2-2)
B5: m1F8-2 antibody (antibody, V domains shown)
VH: B2 VH
VL: B1 VL with I2V, V3L, T14S, P15L, E17D, P18Q, Q50K, V88L, V109L
notes: as for B2
B6: h1F8-2-4 (antibody, V domains shown)
VH: B1 VH with A68V
VL: B1 VL
notes: Humanized antibody; also called humanized 1F8 antibody h1F8-2-4

Key:
human CX3CR1 [1] = biological target: T1, human CX3CR1 (human, UniProt P49238 1-355); assay: cell-based or functional assay
T1 sequence: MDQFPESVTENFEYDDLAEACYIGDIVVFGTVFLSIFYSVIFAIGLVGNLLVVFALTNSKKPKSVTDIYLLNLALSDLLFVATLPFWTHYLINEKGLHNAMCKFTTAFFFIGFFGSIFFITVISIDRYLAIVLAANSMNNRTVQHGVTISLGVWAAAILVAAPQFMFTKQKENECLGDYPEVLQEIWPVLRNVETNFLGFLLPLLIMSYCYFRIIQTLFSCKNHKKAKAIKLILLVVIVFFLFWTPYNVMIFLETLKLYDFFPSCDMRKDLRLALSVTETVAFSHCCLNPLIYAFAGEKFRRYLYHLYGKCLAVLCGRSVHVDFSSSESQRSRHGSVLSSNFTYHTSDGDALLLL

human CX3CR1 [2] = biological target: T1, human CX3CR1; assay: binding to hCX3CR1-expressing Eurofins cells
[3] = biological target: T2, mCX3CR1-4 (chimeric CX3CR1); assay: flow cytometry, chimeric CX3CR1-expressing Ba/F3 cells
T2 construct: Whole, on Ba/F3 cells

[4] = biological target: T3, mCX3CR1-2 (chimeric CX3CR1); assay: as above
T3 construct: Whole, on Ba/F3 cells

mouse CX3CR1 [5] = biological target: T4, mouse CX3CR1 (mouse, UniProt Q9Z0D9 1-354); assay: as above
T4 construct: whole, on cells; Expressed on Ba/F3 cells; also called mCX3CR1
T4 sequence (looked up): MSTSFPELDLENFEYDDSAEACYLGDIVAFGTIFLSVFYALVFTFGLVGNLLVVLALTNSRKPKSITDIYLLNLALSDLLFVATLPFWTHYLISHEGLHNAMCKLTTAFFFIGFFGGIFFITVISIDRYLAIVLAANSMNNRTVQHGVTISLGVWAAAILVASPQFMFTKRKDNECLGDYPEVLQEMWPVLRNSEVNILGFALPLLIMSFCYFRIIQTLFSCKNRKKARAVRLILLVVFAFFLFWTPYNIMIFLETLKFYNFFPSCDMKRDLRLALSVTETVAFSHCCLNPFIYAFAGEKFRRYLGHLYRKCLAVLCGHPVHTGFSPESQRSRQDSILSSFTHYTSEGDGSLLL

[6] = biological target: T5, mCX3CR1-3 (chimeric CX3CR1); assay: as above
T5 construct: Whole, on Ba/F3 cells

human CX3CR1 [7] = biological target: T1, human CX3CR1; assay: flow cytometry, binding to hCX3CR1-expressing Ba/F3 cells
human CX3CR1 [8] = biological target: T1, human CX3CR1; assay: cell-based or functional assay; remark: listed apart in the source
rat CX3CR1 [9] = biological target: T6, rat CX3CR1 (rat, UniProt P35411 1-354); assay: flow cytometry, CX3CR1-expressing Ba/F3 cells
T6 construct: whole, on cells; Expressed on Ba/F3 cells; also called rCX3CR1
T6 sequence (looked up): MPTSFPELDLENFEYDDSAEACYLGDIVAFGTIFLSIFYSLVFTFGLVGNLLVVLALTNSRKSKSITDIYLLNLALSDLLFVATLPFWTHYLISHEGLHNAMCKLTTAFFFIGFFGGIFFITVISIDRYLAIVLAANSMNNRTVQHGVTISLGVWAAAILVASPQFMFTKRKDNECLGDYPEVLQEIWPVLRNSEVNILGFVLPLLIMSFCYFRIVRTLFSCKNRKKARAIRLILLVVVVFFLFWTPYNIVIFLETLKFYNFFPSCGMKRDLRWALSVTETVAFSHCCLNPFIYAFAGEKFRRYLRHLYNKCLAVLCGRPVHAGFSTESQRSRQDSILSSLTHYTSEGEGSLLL

mouse CX3CR1 [10] = biological target: T4, mouse CX3CR1; assay: flow cytometry, CX3CR1-expressing Ba/F3 cells
[11] = biological target: T7, mCX3CR1-1 (chimeric CX3CR1); assay: flow cytometry, chimeric CX3CR1-expressing Ba/F3 cells, 200 nM, grade vs positive antibody (+++ >70%, ++ 40-70%, + 10-40%, - <10%)
T7 construct: Whole, on Ba/F3 cells

[12] = biological target: T8, hCX3CR1-2 (chimeric CX3CR1); assay: as above
T8 construct: Whole, on Ba/F3 cells

[13] = biological target: T9, hCX3CR1-4 (chimeric CX3CR1); assay: as above
T9 construct: Whole, on Ba/F3 cells

[14] = biological target: T10, hCX3CR1-3 (chimeric CX3CR1); assay: as above
T10 construct: Whole, on Ba/F3 cells

[15] = biological target: T11, hCX3CR1-1 (chimeric CX3CR1); assay: as above
T11 construct: Whole, on Ba/F3 cells

human CX3CR1 [16] = biological target: T1, human CX3CR1; assay: as above
rat CX3CR1 [17] = biological target: T6, rat CX3CR1; assay: flow cytometry, CX3CR1-expressing Ba/F3 cells, relative to Synagis
mouse CX3CR1 [18] = biological target: T4, mouse CX3CR1; assay: as above
human CX3CR1 [19] = biological target: T1, human CX3CR1; assay: flow cytometry, EC50 on hCX3CR1-expressing Ba/F3 cells, against m1F8
human CX3CR1 [20] = biological target: T1, human CX3CR1; assay: cell-based or functional assay; remark: listed apart in the source
[21] = biological target: T2, mCX3CR1-4 (chimeric CX3CR1); assay: flow cytometry, chimeric CX3CR1-expressing Ba/F3 cells, 200 nM, grade vs positive antibody (+++ >70%, ++ 40-70%, + 10-40%, - <10%)

Binder	Cell migration inhibitory activity (IC50, nM) (human CX3CR1 [1]) [nM]	EC50 (human CX3CR1 [2]) [nM]	relative measured value (flow cytometry reactivity, MFI) compared to positive antibody at 200 nM [4] [%]	relative measured value (flow cytometry reactivity, MFI) compared to positive antibody at 200 nM (mouse CX3CR1 [5]) [%]	relative measured value (flow cytometry reactivity, MFI) compared to positive antibody at 200 nM [6] [%]	EC50 (human CX3CR1 [7]) [nM]	Cell migration inhibitory activity (IC50, nM) (human CX3CR1 [8]) [nM]	binding result (rat CX3CR1 [9])	binding result (mouse CX3CR1 [10])	relative measured value (flow cytometry reactivity, MFI) compared to positive antibody at 200 nM [11] [%]	relative measured value (flow cytometry reactivity, MFI) compared to positive antibody at 200 nM [12] [%]	relative measured value (flow cytometry reactivity, MFI) compared to positive antibody at 200 nM [13] [%]	relative measured value (flow cytometry reactivity, MFI) compared to positive antibody at 200 nM [14] [%]	relative measured value (flow cytometry reactivity, MFI) compared to positive antibody at 200 nM [15] [%]	relative measured value (flow cytometry reactivity, MFI) compared to positive antibody at 200 nM (human CX3CR1 [16]) [%]	further results
B1	2.02	4.42														
B2			< 10	< 10	< 10	6.69	5.32	no binding (tested: <10% of positive antibody at 200 nM)	no binding (tested: <10% of positive antibody at 200 nM)	> 70	> 70	> 70	> 70	40 to 70	> 70	relative measured value (flow cytometry reactivity, MFI) compared to positive antibody at 200 nM [3]: < 10%
B3	1.4	4.02														
B4	1.27	3.1														binding result (rat CX3CR1 [17]): no binding; binding result (mouse CX3CR1 [18]): no binding
B5			< 10	< 10	< 10	2.67	2.96	no binding (tested: <10% of positive antibody at 200 nM)	no binding (tested: <10% of positive antibody at 200 nM)	> 70	> 70	> 70	> 70	40 to 70	> 70	fold improvement in binding activity compared to the original m1F8 antibody (human CX3CR1 [19]): ≥ 70 fold; improvement in inhibitory activity against fractalkine-dependent cell migration compared to the original m1F8 antibody (human CX3CR1 [20]): ≥ 15 fold; relative measured value (flow cytometry reactivity, MFI) compared to positive antibody at 200 nM [21]: 10 to 40%
B6	2.61	4.42														
